According to paper PMC8372784, “AMOTL2 mono-ubiquitination by WWP1 promotes contact inhibition by facilitating LATS activation” (Life Science Alliance, 2021):

Target: T1, GST-WWP1 (WW-domain containing protein 1) (UniProt Q9H0M0 1-922)
T1 construct: WWP1, HECT-type E3 ligase, full length; source: baculovirus-infected Sf9 insect cells, purified
Test: pull-down; GST or GST-WWP1 (1 μg) immobilised on glutathione-Sepharose 4B, 200 ng AMOTL2-V5; 20 mM Tris-Cl pH 7.9, 150 mM KCl, 0.2 mM EDTA, 20% glycerol, 0.05% NP-40, 0.2 mg/ml BSA; 4°C, 3 h; Western blot
Details: both partners purified

B1: AMOTL2-V5 (angiomotin-like 2) (natural protein, UniProt Q9Y2J4 1-779, looked up)
chain: MRTLEDSSGTVLHRLIQEQLRYGNLTETRTLLAIQQQALRGGAGTGGTGSPQASLEILAPEDSQVLQQATRQEPQGQEHQGGENHLAENTLYRLCPQPSKGEELPTYEEAKAHSQYYAAQQAGTRPHAGDRDPRGAPGGSRRQDEALRELRHGHVRSLSERLLQLSLERNGARAPSHMSSSHSFPQLARNQQGPPLRGPPAEGPESRGPPPQYPHVVLAHETTTAVTDPRYRARGSPHFQHAEVRILQAQVPPVFLQQQQQYQYLQQSQEHPPPPHPAALGHGPLSSLSPPAVEGPVSAQASSATSGSAHLAQMEAVLRENARLQRDNERLQRELESSAEKAGRIEKLESEIQRLSEAHESLTRASSKREALEKTMRNKMDSEMRRLQDFNRDLRERLESANRRLASKTQEAQAGSQDMVAKLLAQSYEQQQEQEKLEREMALLRGAIEDQRRRAELLEQALGNAQGRAARAEEELRKKQAYVEKVERLQQALGQLQAACEKREQLELRLRTRLEQELKALRAQQRQAGAPGGSSGSGGSPELSALRLSEQLREKEEQILALEADMTKWEQKYLEERAMRQFAMDAAATAAAQRDTTLIRHSPQPSPSSSFNEGLLTGGHRHQEMESRLKVLHAQILEKDAVIKVLQQRSRRDPGKAIQGSLRPAKSVPSVFAAAAAGTQGWQGLSSSERQTADAPARLTTDRAPTEEPVVTAPPAAHAKHGSRDGSTQTEGPPDSTSTCLPPEPDSLLGCSSSQRAASLDSVATSRVQDLSDMVEILI
notes: AMOTL2 (angiomotin-like 2), full length; The legends print AMOTL-V5; the text prints AMOTL2-V5; also called AMOTL-V5; source: baculovirus-infected Sf9 insect cells, purified
B1: binds.
